Six substances from article doi:10.1101/2020.05.05.080093 can be followed below.

Assay in all cases: ITC
The target of test [1] is Odin_LCB_4 TF-Vps4-MIT (Microtubule Interacting and Transport domain of Vps4 of Odinarchaeota_LCB_4) (Odinarchaeota_LCB_4).
For test [2], the target named is Heimdall_LC_3 TF-Vps4-MIT (Microtubule Interacting and Transport domain of Vps4 of Heimdallarchaeota_LC_3) (Heimdallarchaeota_LC_3).
Test [3] addresses Loki_GC14_75 TF-Vps4-MIT (Microtubule Interacting and Transport domain of Vps4 of Lokiarchaeum_GC14_75) (Lokiarchaeum_GC14_75).

“Odin_LCB_4 TF-Vps20/32/60 (natural protein)” showed a dH in test [1] of 1380 kJ/mol. With “Heimdall_LC_3 TF-Vps2/24/46 (natural protein)”, in test [2], the dH1 (Sequential Binding Sites, first site) is -1980 kJ/mol and the dH2 (Sequential Binding Sites, second site) is 3900 kJ/mol. Consider “Heimdall_LC_3 TF-Vps20/32/60 (natural protein)”, for which, in test [2], the dH1 (Sequential Binding Sites, first site) turned out to be 11600 kJ/mol and the dH2 (Sequential Binding Sites, second site) is -9670 kJ/mol.

Odin_LCB_4 Vps2/24/46 (natural protein) showed a dH in test [1] of 1640 kJ/mol. With “Loki_GC14_75 TF-Vps2/24/46 (natural protein)”, in test [3], the dH1 (Sequential Binding Sites, first site) was -506 kJ/mol and the dH2 (Sequential Binding Sites, second site) came out at 1770 kJ/mol. On to “Loki_GC14_75 TF-Vps20/32/60 (natural protein)”, for which the dH in test [3] is 5940 kJ/mol.
